According to the supplement of paper PMC12042874:
± gives the uncertainty stated by the source.

Test: amyloid nucleation score (Sup35N fusion, yeast selection) (log enrichment); library NNK3; higher = more nucleation; inactive = no reads after selection
Procedure, shortened: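 Nucleation score: DiMSum log enrichment of output over input reads, centred on the mode score of non-aggregating sequences. Only sequences with at least 100 input reads were kept. Reads came from Illumina sequencing of plasmid inserts before and after 7 days of growth at 30°C without adenine and uracil, in psi-negative yeast expressing Sup35N fused to peptides of 20 random codons after 24 hours of induction with 100 μM copper sulfate.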

Row | Substance | amyloid nucleation score
1 | TYTVYLRRYAYYECTFRQFL | inactive
2 | TYVKYKRILQQGIYAVVMNV | inactive
3 | VAFGWDLFFNVLNLHCNVSN | 1.89 ± 0.069
4 | VALDNCTFVLVAMQTDQD | 0.817 ± 0.12
5 | VAMRDERGLFNRLWLRVFV | inactive
6 | VAQSFEIGYYSGLYIYYCSV | inactive
7 | VAVDIRALFRGRWVMNLARR | -0.75 ± 1.5
8 | VCCCHLCL | 0.17 ± 0.56
9 | VCLCNQVRLTM | inactive
10 | VCLHFMGLRVAFLAGMFIII | inactive
11 | VCNMRVYI | inactive
12 | VCNMYFSFIRNLRGFNRNQC | 2.06 ± 0.062
13 | VCQGFSKFLRWSQVRFLSMA | -0.288 ± 1.4
14 | VCSDGLNWGHGVRMLWY | inactive
15 | VCSHGFCACCRNNKDETWCD | -0.331 ± 0.66
16 | VCSVTFMLVLLCMRHCLITR | inactive
17 | VCTTMCDTRWVTISYF | inactive
18 | VCVTSSSMCNFDGLVVTRVV | inactive
19 | VDAIASGVYWPPVVVYSWLF | inactive
20 | VDEDQLRHMWVHSD | inactive
21 | VDISFVSAWKDLLLGRLVCD | inactive
22 | VDKDTE | inactive
23 | VDKWSCVDNFFSY | inactive

Row | Substance | amyloid nucleation score
24 | VDMVGYRNLRCHSN | inactive
25 | VDNSYQFSLKTDSNYNIERQ | inactive
26 | VDQPQ | inactive
27 | VDWNRTFEIKSVEGDVKGAL | inactive
28 | VEAMQVWDSSFMSCTNLFTS | inactive
29 | VECCNGLCDDVLGAVGNLGL | inactive
30 | VECHPCSHFDLHNGRIRDNR | inactive
31 | VEEGFGLMSKIAHSIGLREC | -0.278 ± 1.4
32 | VEFTN | inactive
33 | VEGCMIFMVVSLLKHYASYT | inactive
34 | VEIKYSVFLRWHVMRDDRLD | inactive
35 | VEKAIAFGNF | inactive
36 | VEMFNITAYTIKSLRVIGLV | inactive
37 | VEMGVLSGFK | -0.288 ± 0.75
38 | VENKMFDRGGFYVWMCGLSD | inactive
39 | VENLHNHYQYVFKNGMCDG | 0.263 ± 0.22
40 | VEQMLVFDTPLSYLVKQVKF | inactive
41 | VESFICDMIVSPHSLS | inactive
42 | VEWMFTEMSVCLE | inactive
43 | VEYQNI | inactive
44 | VFAARAKRY | inactive
45 | VFASQ | 1.3 ± 0.13
46 | VFCAGLFDTMCCSDGASVEV | 1.16 ± 0.095

Row | Substance | amyloid nucleation score
47 | VFDPGLSNCWRVTGWNED | inactive
48 | VFDSCRTFSMYTDLLGWEWR | inactive
49 | VFIGSVGFSDLWKLSVAYNY | inactive
50 | VFKCCVLFGGSRWFTLFLWF | inactive
51 | VFLCMGTYDTCFL | 0.638 ± 0.16
52 | VFLGCYSSYIVIWDARAPG | 1.96 ± 0.071
53 | VFLNQCLSGVMGLEGVSLDR | inactive
54 | VFLPLPPCTC | inactive
55 | VFLQRCVDYMCDRNCFSVFA | inactive
56 | VFMNKGQRV | inactive
57 | VFNKCVQFYFILGRNNEIWI | 2.56 ± 0.077
58 | VFPKSYTPDQTFPCNSSLAK | inactive
59 | VFQRR | inactive
60 | VFRLLVDKYCGFSPVGLPDV | inactive
61 | VFTFAWMLNRVISNYHPTIP | inactive
62 | VFVAMNVFMVWICRLQGSLT | 0.508 ± 0.33
63 | VFVFDVLFGLLNMANFREVD | -0.713 ± 0.88
64 | VFVPVYPEFFVRSG | inactive
65 | VFVVGSVSRCCKKLVT | inactive
66 | VGAGWYN | inactive
67 | VGCHLWEHWRSMQVR | inactive
68 | VGERLANQIGTYCDDQWWTW | inactive
69 | VGFILWFGGHCGS | 0.659 ± 0.23

Row | Substance | amyloid nucleation score
70 | VGGPNCIQAFS | inactive
71 | VGGQWGAYAAKA | inactive
72 | VGIRWYGFDTCRRKFGTWNI | inactive
73 | VGLISGVCDDGSGSMSSRLW | inactive
74 | VGLIWVVSFIDKNSYGWSGT | inactive
75 | VGLWVAYYGRETNRVDNYVT | inactive
76 | VGNGYTMSG | inactive
77 | VGNQKIIMRGALELDRELTC | inactive
78 | VGRRDN | inactive
79 | VGRSNH | inactive
80 | VGSGCNISTKTACFYMKLIA | inactive
81 | VGSQEANLAVGI | inactive
82 | VGYMALQETILVIVDDGVTE | inactive
83 | VHNYHERALKKHEGTTVRNF | 0.154 ± 0.4
84 | VHSFLKYGGNSAIGLLPEDS | inactive
85 | VHTCGRKVWFEA | inactive
86 | VICGCWIFFFYFLK | -0.354 ± 0.73
87 | VIDRNWRRLHSWVGLVGRAR | inactive
88 | VIFISILPLRKCSDKWEDNN | inactive
89 | VIFYCFSRILTYKSIVVG | inactive
90 | VIGAFRLYNFNVALISSNIS | inactive
91 | VIGRTASDGVRCCRVGMMRR | inactive
92 | VIGRVRIGLVFRSTIGFSEG | inactive

Row | Substance | amyloid nucleation score
93 | VIIPNFWLFEGLRAGKRRG | inactive
94 | VIITNEMVDRVDGDTTSYMH | -0.003 ± 1
95 | VIITSSTVLMFRFLEYRESQ | inactive
96 | VIKTHMWLGL | 0.633 ± 0.24
97 | VINVT | inactive
98 | VIPARADATGPKEHGWLQLQ | inactive
99 | VIQIYIMRCLYDYYI | 2.8 ± 0.063
100 | VIRGRMMCHGIGAYVVWKSH | inactive
101 | VIRQVCYYRLGEWLLGAR | inactive
102 | VIRVKSSCLVLLEHKLLACG | inactive
103 | VISGNNVCSIRSDFRKIFFY | 0.762 ± 0.17
104 | VISMRVTGVVHRFWNEVYRD | 1.22 ± 0.1
105 | VITLYVVGVYWGGNDIGDFM | 0.976 ± 0.19
106 | VIVRRSQFTELICLFYNFTM | inactive
107 | VIWVPVKIR | inactive
108 | VIYLKTRWNSWCPAGGVLLC | inactive
109 | VKDSLMGCKIPCN | inactive
110 | VKDYNYKFWALPSVPREWVF | inactive
111 | VKLNYISLDENVRSVKQVMI | inactive
112 | VKMSWHHHCLFLICLCTSYE | 0.606 ± 0.13
113 | VKRADNSSSALRWYLNMYNL | inactive
114 | VKSFCCFGWVLSP | inactive
115 | VKSLIELCRYNRPLALDLNI | -0.519 ± 0.8

Row | Substance | amyloid nucleation score
116 | VKTKPFHLRYR | inactive
117 | VKTWCYRCCSGALSLS | inactive
118 | VKYYDFCEPGRGYKDIRRL | inactive
119 | VLAGACDYPYGNVLV | inactive
120 | VLCNYGCGIDFAV | 0.181 ± 0.53
121 | VLCSVFIFFLRGFDS | 2.3 ± 0.066
122 | VLDAIVATDRL | inactive
123 | VLDKVKWTLLCNGRRAVAPW | -0.089 ± 1.4
124 | VLILCIKNTCLNQCASSCHR | 2.02 ± 0.068
125 | VLIMRCLKWFASMLCFSIPK | inactive
126 | VLIYRRGFNYLRVLCCTTGF | inactive
127 | VLKKGGVFVWFAWECNTCSD | inactive
128 | VLKKGYNKRYVGECIANCTV | inactive
129 | VLLIWIIVPTWF | 0.5 ± 0.14
130 | VLLVHGKEWTEMLAHTLRCG | inactive
131 | VLRGHSMHRSMGLWLA | inactive
132 | VLRIFISWCSVQLSKRLWWT | inactive
133 | VLRVDRGGTIMRYPCLG | inactive
134 | VLSIDTDYKFIGHASDYASI | 0.959 ± 0.16
135 | VLSMRHSNTGMARCTDW | inactive
136 | VLSQRVPQMHMTNGVTEASV | inactive
137 | VLTFNKGFFGC | 1.26 ± 0.11
138 | VLTVYDCGLEQPW | inactive

Row | Substance | amyloid nucleation score
139 | VLVIIKSD | inactive
140 | VLVLAMITFYNLYMYYDVGR | inactive
141 | VLYSCERKELVIGMKVLVWE | inactive
142 | VLYYCGFSITARKSEKLVWP | inactive
143 | VMDLLK | inactive
144 | VMGMDIIRIPS | inactive
145 | VMGVAPSYASTYLLVILNMG | 1.39 ± 0.15
146 | VMIVRLYVIYPMFEVKP | inactive
147 | VMKSYDWEDWSSDPFIFRYV | inactive
148 | VMMFYNILHSQIDKLFKLLA | inactive
149 | VMQHNVGLFNDHKYDSCRAC | inactive
150 | VMTITLVLKWYGLLT | inactive
151 | VMVFN | 0.635 ± 0.36
152 | VMYGIL | inactive
153 | VNFACSIGGRGLFGFGIKVS | inactive
154 | VNFCFFFKLLRGRSGYHLSW | 2.15 ± 0.09
155 | VNFFGR | inactive
156 | VNGLLAIRVYCKHWP | inactive
157 | VNHKFKSSFFNNH | -0.27 ± 1.1
158 | VNKVKILCYGHHFKGMWDLA | inactive
159 | VNNPQVDHRVLFNNM | -0.426 ± 0.61
160 | VNRFVDTVGKGRITIIGCEH | inactive
